Results reported in PMC3017539, “Crystal Structure of Escherichia coli CusC, the Outer Membrane Component of a Heavy Metal Efflux Pump” (PLoS ONE, 2011).

Target: the molecule itself
Assay: SEC; gel filtration (Superdex-200) in 10 mM Na-acetate/50 mM NaCl/10% glycerol/0.05% DDM pH 5; oligomer judged from the elution position

B1: CusC, the outer membrane component of the Cus heavy metal efflux pump (natural protein, E. coli, UniProt P77211 18-457, looked up)
chain: CSLAPDYQRPAMPVPQQFSLSQNGLVNAADNYQNAGWRTFFVDNQVKTLISEALVNNRDLRMATLKVQEARAQYRLTDADRYPQLNGEGSGSWSGNLKGNTATTREFSTGLNASFDLDFFGRLKNMSEAERQNYLATEEAQRAVHILLVSNVAQSYFNQQLAYAQLQIAEETLRNYQQSYAFVEKQLLTGSSNVLALEQARGVIESTRSDIAKRQGELAQANNALQLLLGSYGKLPQAQTVNSDSLQSVKLPAGLSSQILLQRPDIMEAEHALMAANANIGAARAAFFPSISLTSGISTASSDLSSLFNASSGMWNFIPKIEIPIFNAGRNQANLDIAEIRQQQSVVNYEQKIQNAFKEVADALALRQSLNDQISAQQRYLASLQITLQRARALYQHGAVSYLEVLDAERSLFATRQTLLDLNYARQVNEISLYTALGGG
modifications: three partial acyl chains attached to Cys1 (most likely triacylated at the N-terminal cysteine with N-acyl and S-diacylglycerol functions)
notes: CusC of Escherichia coli, gene for the full-length protein amplified from DH5alpha cells; residues 21-31 disordered in the crystal. numbers count on: the mature protein; Hexa-histidine tag introduced after the C-terminal residue; no cleavage is described; also called outer membrane factor (OMF) protein CusC; source: E. coli C43 (DE3), over-expressed, purified from membranes (nickel column, …)
- stoichiometry N: 3
